Data set [1] has as its target Plasma derived human fibrinogen (reference protein) (UniProt P02671).
Data set [2] addresses Recombinant human fibrinogen from the milk of transgenic mice (UniProt P02671).

For the substance Human thrombin, the entries for the “clot formation after thrombin, 4 U/ml, 37 C, 24 hours” value in data set [1] and in data set [2] were “Cloudy clot-like precipitates were clearly visible in ... hFIB-spiked NTG (pellet-2)” and “Cloudy clot-like precipitates were clearly visible in TG (pellet-2)”, respectively.
